Among the data in paper PMC12730314, “The Role of Surfactants in Stabilizing Fluorescence Anisotropy for Protein–Aptamer Binding Affinity Measurements” are binding result and Kd values, retold here.

Series [1] has as its target human serum albumin (HSA) (Homo sapiens, UniProt P02768 25-609). Put plainly: fluorescence anisotropy; PBS + 5 mM MgCl2, no Tween 20; saturable, poor 1:1 fit; 25 C, 40 min; HSA: PBS +. To be noted: protein: commercial.
Series [2] concerns the target T1, thrombin (human plasma) (Homo sapiens, UniProt P00734;P00734 328-363;364-622). The series can be described thus: fluorescence anisotropy; 0.1% Tween 20, 75 nM aptamer; Hill fit; Thrombin: TGK (192 mM Tris, 5 mM KH2PO4, 25 mM glycine hydrochloride; pH not stated) +/- 0.1% Tween 20, thrombin stock in 1 mg/mL BSA, 25 C, 40 min; HSA: PBS +. For orientation: In fluorescence polarisation assays a small probe gives low polarisation when free and higher when bound to something large.

Series [3] addresses T1, thrombin (human plasma). The series can be described thus: fluorescence anisotropy; no surfactant, 75 nM aptamer; Hill fit; Thrombin: TGK (192 mM Tris, 5 mM KH2PO4, 25 mM glycine hydrochloride; pH not stated) +/- 0.1% Tween 20, thrombin stock in 1 mg/mL BSA, 25 C, 40 min; HSA: PBS +.
Series [4] addresses T1, thrombin (human plasma). Put plainly: fluorescence anisotropy; 0.1% Tween 20, 25 nM aptamer; Hill fit; Thrombin: TGK (192 mM Tris, 5 mM KH2PO4, 25 mM glycine hydrochloride; pH not stated) +/- 0.1% Tween 20, thrombin stock in 1 mg/mL BSA, 25 C, 40 min; HSA: PBS +.
Series [5] addresses T1, thrombin (human plasma). Put plainly: fluorescence anisotropy; 0.1% Tween 20, 50 nM aptamer; Hill fit; Thrombin: TGK (192 mM Tris, 5 mM KH2PO4, 25 mM glycine hydrochloride; pH not stated) +/- 0.1% Tween 20, thrombin stock in 1 mg/mL BSA, 25 C, 40 min; HSA: PBS +.

Sequence of human serum albumin (HSA) (P02768 25-609): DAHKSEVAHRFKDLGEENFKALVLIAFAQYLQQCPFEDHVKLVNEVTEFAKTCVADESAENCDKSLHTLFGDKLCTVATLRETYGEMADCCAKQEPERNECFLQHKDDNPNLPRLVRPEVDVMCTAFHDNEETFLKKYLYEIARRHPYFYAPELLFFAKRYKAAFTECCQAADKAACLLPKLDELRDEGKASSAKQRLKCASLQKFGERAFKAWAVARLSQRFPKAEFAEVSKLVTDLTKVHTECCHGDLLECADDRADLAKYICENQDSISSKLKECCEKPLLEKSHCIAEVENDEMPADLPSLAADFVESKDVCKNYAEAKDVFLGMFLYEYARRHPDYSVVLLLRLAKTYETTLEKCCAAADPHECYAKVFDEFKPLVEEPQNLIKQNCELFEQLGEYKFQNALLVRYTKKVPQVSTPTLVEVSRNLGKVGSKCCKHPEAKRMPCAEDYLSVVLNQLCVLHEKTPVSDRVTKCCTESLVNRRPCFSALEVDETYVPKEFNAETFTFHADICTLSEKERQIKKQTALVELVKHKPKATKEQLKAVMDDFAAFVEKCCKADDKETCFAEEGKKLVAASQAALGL

For the molecule TCCACGATGTAGGATCCACATGAGCGCTCCTGTTACCCTG (ssDNA) [TR-labeled s10yh2], the binding result in series [1] was “binds”.

Turning to AGTCCGTGGTAGGGCAGGTTGGGGTGACT (structured_DNA) [TR-labeled thrombin-binding 29mer], the dissociation constant Kd – broadly, the constant that tells how readily two partners part at equilibrium – with thrombin (human plasma) [2] came to 30 nM; with thrombin (human plasma) [3], 54 nM; in the series with thrombin (human plasma) [4] it was 35 nM; with thrombin (human plasma) [5], 53 nM.
